In publication PMC7241075 one finds stoichiometry N data, which are given here for two substances.

Several values for one entry are separate records, joined by “and”; a condition that tells them apart may be missing. Equal entries are not always repeated.

Assay [1] concerns the target Scolopendra subspinipes subspinipes haemocyanin (Scolopendra subspinipes subspinipes). Description: negative-stain transmission electron microscopy; first SEC peak in TRIS stabilizing buffer, stained with 2% uranyl acetate, Jeol 1400Plus.
Assay [2] shares this target. The experiment in a line: SEC; plasma (supernatant of haemolymph, 3300g, 30 min, 4°C) on Superose 6 3.2/300, isocratic Tris buffer with 5 mM CaCl2 and 5 mM MgCl2, pH 8.2 or 8.0 (methods), 0.1 ml min^-1; oligomer told from the retention volume.
Assay [3] has the same target. The experiment in a line: negative-stain transmission electron microscopy; Hc pellet from ultracentrifugation, 26-30 µg ml^-1, in 50 mM MES (pH 6.2, 6.6) or 50 mM TRIS-HCl (pH 7.2-8.5) with 5 mM CaCl2 and 5 mM MgCl2; particles counted as 3 × 6-mer or 1 × 6-mer.
Assay [4] shares this target. Description: negative-stain transmission electron microscopy; first SEC peak in TRIS stabilizing buffer, stained with 2% uranyl acetate, Jeol 1400Plus. This is another data set of the same source.
The target in assay [5] is Scolopendra viridicornis haemocyanin (Scolopendra viridicornis). The assay is described as above.
The target is the same in assay [6]. The experiment in a line: SEC; plasma (supernatant of haemolymph, 3300g, 30 min, 4°C) on Superose 6 3.2/300, isocratic Tris buffer with 5 mM CaCl2 and 5 mM MgCl2, pH 8.2 or 8.0 (methods), 0.1 ml min^-1; oligomer told from the retention volume. (In general: SEC sorts molecules by how far they enter the pores of the column.)

Broadly, the stoichiometry N is a count of units in the complex or per binding partner. Take “Scolopendra subspinipes subspinipes haemocyanin (complex)”: the stoichiometry N in assay [1] is 18; in assay [2], 18; in assay [3], 18 and 6; in assay [4] it was 6.
On to “Scolopendra viridicornis haemocyanin (complex)”, for which the stoichiometry N in assay [5] is 36 and 18; in assay [6], 36.
